Measurements taken from patent US20070111265A1, “Ligands for mineralocorticoid receptor (MR) and methods for screening for or designing MR ligands” (Van Andel Research Institute, priority 2005, published 2007).

T1: human MR LBD (residues 727-984) containing a C808S mutation, 6xHis-GST fusion protein (human), P08235
T1 chain: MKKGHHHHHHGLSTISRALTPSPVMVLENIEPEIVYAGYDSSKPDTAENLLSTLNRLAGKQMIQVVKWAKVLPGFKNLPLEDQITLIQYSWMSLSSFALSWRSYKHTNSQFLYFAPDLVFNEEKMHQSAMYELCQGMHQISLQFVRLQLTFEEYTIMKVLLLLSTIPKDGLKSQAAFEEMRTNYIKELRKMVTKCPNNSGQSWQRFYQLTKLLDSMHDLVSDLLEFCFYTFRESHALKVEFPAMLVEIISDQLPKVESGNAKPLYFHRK


Target: T1, human MR LBD (residues 727-984) …
Assay: AlphaScreen peptide competition; corticosterone
Details: modification not given

Binder	IC50
TERHKILHRLLQESS [SRC1-2]	1400 nM
SKDHQLLRYLLDKDE [SRC1-3]	1600 nM
KENNALLRYLLDRDD [SRC3-3]	1400 nM
KEKHKILHRLLQDSS [SRC2-2]	2200 nM
QEKHRILHKLLQNGN [SRC3-2]	4600 nM
